Measurements reported in patent US20040131612A1 (APPLIED MOLECULAR EVOLUTION, published 2004).
Where “and” joins values, the source holds several entries; their conditions need not be identical. Equal values may be shown once.

B1: A10K Fab fragment (Fab, V domains shown)
VH: EVQLVESGGGLVQPGGSLRLSCAASGFKFSNHWMNWVRQAPGKGLEWVGEIRSKSMNSATHYAESVKGRFTISRDDSKNSLYLQMNSLKTEDTAVYYCARNYYGSTYDHWGQGTLVTVSS
VL: EIVLTQSPDFQSVTPKEKVTITCRASQFVGYSIHWYQQKPDQSPKLLIKYASESRSGVPSRFSGSGSGTDFTLTINSLEAEDAATYYCQQSHSWHFTFGQGTKVEIK
notes: Fab released from the E. coli periplasm; Against hu1: light chain S31Y, M55R
B2: A10K IgG (antibody, V domains shown)
VH: B1 VH
VL: B1 VL

Key:
human TNF-α [1] = target: T1, human TNF-α (human, UniProt P01375 77-233); test: kinetic exclusion assay (KinExA 3000), 40 pM Fab mixed with 400 pM hTNF-α, time course
T1 construct: It was biotinylated in the filter lift and on-rate ELISA; also called hTNF-α; hTNF
Experimental: To measure kₒₙ, individual Fab fragments at a concentration of 40 pM were mixed with 400 pM of hTNF-α. A series of measurements were taken over a time course. The resulting data was used to calculate the kₒₙ with the instrument software. koff was calculated by using the formula Kd=koff/kₒₙ.

human TNF-α [2] = target: T1, human TNF-α; test: kinetic exclusion assay (KinExA 3000), Fab in solution with human TNF-α; lower end of the range
Experimental: (§1) Next, binding kinetics of three of the Fab fragments described in Table 4 were determined in a kinetic exclusion assay. Affinity measurements were performed on a KinExA™3000 instrument (Sapidyne Instruments, Inc., Boise, Id.) using Fab fragments (A10K, A9K, and A10P) released from the periplasmic space whose concentration was determined by a quantitative ELISA. Briefly, antigen and antibody fragment were allowed to react in solution and the fraction of unbound reagent was determined by capture and measured on a bead support. Binding kinetics can be determined or calculated from the amount of unbound reagent. For instance, after interaction between TNF-α and a Fab fragment has occurred in solution, binding of the unreacted, free Fab fragment to TNF-α coated beads can be measured on the instrument by detection with a labeled secondary antibody to the Fab fragment (e.g., a goat anti-IgG (heavy and light)). […] A total of 13 tubes were used for each Kd determination. For A10K and A10P, the Fab concentration was 10 pM with the human TNF-α concentration beginning at 160 pM and then serially diluted to 0.078 pM with the final tube containing no human TNF-α. […] After the incubation, the amount of unbound Fab in the equilibrated samples was determined on the KinExA™3000 instrument according to the manufacturer's instructions. Kd values were determined by the instrument software.

human TNF-α [3] = target: T1, human TNF-α; test: kinetic exclusion assay (KinExA 3000), Fab in solution with human TNF-α; upper end of the range
Experimental: as §1

human TNF-α [4] = target: T1, human TNF-α; test: calculated from Kd = koff/kon (KinExA data)
Experimental: Next, binding kinetics of three of the Fab fragments described in Table 4 were determined in a kinetic exclusion assay. Affinity measurements were performed on a KinExA™3000 instrument (Sapidyne Instruments, Inc., Boise, Id.) using Fab fragments (A10K, A9K, and A10P) released from the periplasmic space whose concentration was determined by a quantitative ELISA. Briefly, antigen and antibody fragment were allowed to react in solution and the fraction of unbound reagent was determined by capture and measured on a bead support. Binding kinetics can be determined or calculated from the amount of unbound reagent. For instance, after interaction between TNF-α and a Fab fragment has occurred in solution, binding of the unreacted, free Fab fragment to TNF-α coated beads can be measured on the instrument by detection with a labeled secondary antibody to the Fab fragment (e.g., a goat anti-IgG (heavy and light)). […] After the incubation, the amount of unbound Fab in the equilibrated samples was determined on the KinExA™3000 instrument according to the manufacturer's instructions. Kd values were determined by the instrument software.
To measure kₒₙ, individual Fab fragments at a concentration of 40 pM were mixed with 400 pM of hTNF-α. […] The resulting data was used to calculate the kₒₙ with the instrument software. koff was calculated by using the formula Kd=koff/kₒₙ.

human TNF-α [5] = target: T1, human TNF-α; test: cell-based or functional assay

T1 sequence (P01375 77-233 limits assumed): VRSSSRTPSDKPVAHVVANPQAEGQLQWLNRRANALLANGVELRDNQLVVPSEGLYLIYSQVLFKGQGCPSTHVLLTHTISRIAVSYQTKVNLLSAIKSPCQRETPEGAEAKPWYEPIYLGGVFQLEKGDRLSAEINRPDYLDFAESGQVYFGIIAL

Binder | kon (human TNF-α [1]) | Kd (human TNF-α [2]) [nM] | Kd (human TNF-α [3]) [nM] | koff (human TNF-α [4]) | L929 cell protection assay (prevention of TNF-α-mediated cell death), EC50 (human TNF-α [5]) [nM] | L929 cell protection assay, EC50 (human TNF-α [5]) [nM]
B1 | 3.92e+06 M⁻¹ s⁻¹ and 7.51e+06 M⁻¹ s⁻¹ | ≥ 0.0035 | ≤ 0.0072 | 1.96e-05 s⁻¹ and 3.76e-05 s⁻¹ | ~0.025 | ~0.067
B2 | – | – | – | – | – | ~0.0027
